Reference: the supplement of paper PMC10567573
± gives the standard deviation.

Test: protein stability index of a GFP-peptide fusion (GPS, HEK-293T) (PSI 1-6); higher = more stable
[1] = treatment: DMSO, c terminus: a fixed tail appended
[2] = treatment: MLN4924 1 uM, 8 h, c terminus: a fixed tail appended
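Further: 24-mer peptide tiles fused after GFP, lentivirally expressed, FACS-sorted into six equal bins by GFP/DsRed ratio, decoded by Illumina sequencing, PSI is the read-weighted mean bin number.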

Sequence	protein stability index [1]	protein stability index [2]	protein stability index (treatment: DMSO, c terminus: native)	protein stability index (treatment: MLN4924 1 uM, 8 h, c terminus: native)
WAMRRSYEAIAKHNQVEAAWLEGR [TRIM35]	2.37 ± 0.12	2.73 ± 0.3		
WDQVSRLHEVLTEVVPIHGRGNFP [TENT5C]	2.59 ± 0.28	2.67 ± 0.17		
WELREKQQLAAEPVPTGFFNMWGF [WDR41]	2.01 ± 0.11	2.37 ± 0.23		
WEYSSSIQNSDNDLPVVQGSSSFS [TRIM29]	4.61 ± 0.25	4.42 ± 0.36		
WIEHSKLREINFKIVEFNPMVLKG [GLT8D2]	2.16 ± 0.1	2.35 ± 0.14		
WLSANPCPHCGDRTFYDPEPILCP [PRAME]	2.45 ± 0.19	2.69 ± 0.45		
WQPAVPLMHMLHLSGALDFPRQS [SPATS1]			2.9 ± 0.38	2.73 ± 0.48
WTNQQKLYSRTGDIVEFVCKSGYH [CFHR2]	2.46 ± 0.35	2.5 ± 0.33		
WTRNPDDITQEEYGEFYKSLTNDW [HSP90AB1]	3.81 ± 0.15	3.82 ± 0.41		
WVKGSVPPPLDQYVKFDAVSGDYY [CLPTM1]	2.79 ± 0.24	2.72 ± 0.28		
WYTKSFGHLCAAEVVKIRDSFSNQ [DLC1]	2.56 ± 0.78	2.09 ± 0.49		
YAFVGDYSGQITLLKLEQNTCSVI [WDFY1]	2.94 ± 0.65	2.72 ± 0.58		
YAMKYMNKQKCVERNEVRNVFKEL [STK32A]	2.07 ± 0.41	2.24 ± 0.62		
YCKNESGSRSNGMWAHSMTVQDYQ [ATE1]	2.35 ± 0.45	2.7 ± 0.37		
YDTTLALGHAAAFSDDCDLPSAQD [GLT8D2]	5.33 ± 0.2	5.31 ± 0.3		
YFITLGTEIAEQEGNQKGEQATSL [KCNA1]	3.79 ± 0.1	3.84 ± 0.24		
YFKEAELKDLLLQVGRGLRYIHSM [WEE1]	2.48 ± 0.8	2.15 ± 0.34		
YFTDTDELQLEAANETYENNFDNL [ATF6]	4.66 ± 0.14	4.337 ± 0.033		
YGGGLGGGFGGGFAGGFVDFGACD [KRT13]	2.39 ± 0.46	2.14 ± 0.67		

Sequence	protein stability index [1]	protein stability index [2]	protein stability index (treatment: DMSO, c terminus: native)	protein stability index (treatment: MLN4924 1 uM, 8 h, c terminus: native)
YGVKSPLSLIARFSPIAIDGMSGL [ELAVL3]	2.41 ± 0.091	2.35 ± 0.33		
YIGSIMKGGAVAADGRIEPGDMLL [DVL3]	2.34 ± 0.22	2.57 ± 0.43		
YILECDHHGGDYKHWREWGSHAQT [CRYBA1]	2.32 ± 0.15	2.43 ± 0.51		
YIRAPPRSKIYLRFLDYEMQNSNE [NETO1]	2.28 ± 0.16	2.44 ± 0.22		
YKGRQLQGCPGAKKHEFLTSVLDA [SMOC2]	3.39 ± 0.42	3.73 ± 0.73		
YKILLDVKTRLEQEIATYRRLLEG [KRT17]	2.32 ± 0.14	2.39 ± 0.37		
YNENVYTEDGKLDIWSKSNYQVFQ [MED27]	2.5 ± 0.42	2.97 ± 0.4		
YNIPHGPVVGSTRRLYEKKIFEYE [EMD]	3.18 ± 0.29	3.23 ± 0.14		
YQQLEDDKLSQKSSSSKLSRSPLK [EPB41L3]	4.94 ± 0.6	5.04 ± 0.28		
YSALSCTSDASFHPAFLPQRQAIK [KCNG1]	2.78 ± 0.23	3.18 ± 0.19		
YSHRETVNGSWYIQDLCEMLGKYG [CASP6]	1.93 ± 0.39	2.1 ± 0.35		
YSHSSTRDGRRDRYSSDTTPLLNG [GOSR1]	4.28 ± 0.4	4.31 ± 0.11		
YSIDQEFLKEYFPIEVVTEGLLNT [NLN]	2.79 ± 0.24	3.19 ± 0.53		
YSRRLQVQERLTKQIAVAITEALR [GCH1]	2.34 ± 0.47	2.19 ± 0.38		
YTSGTTGIPKGVMLSHDNITWIAG [ACSBG2]	2.37 ± 0.36	2.21 ± 0.31		
YWRYDEYKRSMDPGYPKMIAHDFP [MMP1]	2.29 ± 0.22	2.18 ± 0.49		
YYAKRNALRAAEVWMDDFKSHVYM [GALNT9]	2.24 ± 0.44	2.12 ± 0.26		
YYIRYRGAVYADSGNFERCIRLWK [FEM1A]	2.59 ± 0.35	2.5 ± 0.57		
